Biological target: Abi2-SH3 domain (AbI2B) (SH3 domain array) (Homo sapiens (Human), UniProt Q9NYB9-1)
Test: SH3 domain array (far-western overlay)

Chain of Abi2-SH3 domain (AbI2B) (SH3 domain array) (Q9NYB9 451-510): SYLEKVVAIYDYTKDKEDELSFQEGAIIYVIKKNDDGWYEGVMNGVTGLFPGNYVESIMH

B1: His-tagged-p130Cas-P2 domain (protein)
chain: SLLFRRTKATAPGPEGGGTLHPNPTDKTSSIQSRPLPSPPKFT
binding result: binds

Source: PMC3629710 (2013)
